Results from patent US20140017269A1 (CHILDREN S HOSPITAL MEDICAL CENTER, published 2014).

Molecular target: the molecule itself
Assay: method not given; self-association

B1: NoV P^--M2e protein (other)
chain: SRTKPFTVPILTVEEMSNSRFPIPLEKLYTGPSSAFVVQPQNGRCTTDGVLLGTTQLSAVNICTFRGDVTHIAGSHDYIMNLASQNWNNYDPTEEIPAPLGTPDFVGKIQGMLTQTTREDGSTRAHKATVSTGTVHFTPKLGSVQYTTSSLLTEVETPIRNEWGCRCNDSSDIDILQTGQNTKFTPVGVIQDGNNHQNEPQQWVLPNYSGRTGHNVHLAPAVAPTFPGEQLLFFRSTMPGCSGYPNMNLDCLLPQEWVQHFYQEAAPAQSDVALLRFVNPDTGRVLFECKLHKSGYVTVAHTGPHDLVIPPNGYFRFDSWVNQFYTLAPMGNGAGR
notes: also called NoV P^--M2e dimer
  binding result: binds
